These results are taken from US20050048070A1 (published 2005).

Experiment [1] concerns the target T1, K8(343-483)/intact K18 heterotypic complex.
T1 construct: one member of the group m25; not shown: N-terminal GST carrier (modified pGEX-2T) and its linker on the keratin constructs
T1 chain 1: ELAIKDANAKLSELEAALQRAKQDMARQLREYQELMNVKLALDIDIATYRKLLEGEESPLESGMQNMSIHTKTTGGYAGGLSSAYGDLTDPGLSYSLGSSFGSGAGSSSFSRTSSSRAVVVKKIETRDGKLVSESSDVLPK
T1 chain 2: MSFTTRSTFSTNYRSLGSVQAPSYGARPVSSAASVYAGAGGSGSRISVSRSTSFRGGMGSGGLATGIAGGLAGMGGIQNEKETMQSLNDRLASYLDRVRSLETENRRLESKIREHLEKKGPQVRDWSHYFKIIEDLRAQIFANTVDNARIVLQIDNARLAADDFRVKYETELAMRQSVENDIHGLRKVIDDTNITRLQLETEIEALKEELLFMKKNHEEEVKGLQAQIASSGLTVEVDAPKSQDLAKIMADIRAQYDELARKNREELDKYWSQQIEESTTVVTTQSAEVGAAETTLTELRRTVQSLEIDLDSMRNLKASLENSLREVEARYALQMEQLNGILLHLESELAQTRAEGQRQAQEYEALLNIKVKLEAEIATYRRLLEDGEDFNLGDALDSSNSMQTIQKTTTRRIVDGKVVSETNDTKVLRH
Briefly: summary map of the heterotypic association assay: GST deletion protein incubated with the complementary keratin, then stained with COU-1.

The target of experiment [2] is T2, K8(300-483)/intact K18 heterotypic complex.
T2 construct: one member of the group m25; not shown: N-terminal GST carrier (modified pGEX-2T) and its linker on the keratin constructs
T2 chain 1: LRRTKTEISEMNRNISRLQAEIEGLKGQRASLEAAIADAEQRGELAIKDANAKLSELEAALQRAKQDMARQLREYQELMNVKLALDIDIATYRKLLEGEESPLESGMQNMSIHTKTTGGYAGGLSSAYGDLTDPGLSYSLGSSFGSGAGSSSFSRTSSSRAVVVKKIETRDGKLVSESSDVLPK
T2 chain 2: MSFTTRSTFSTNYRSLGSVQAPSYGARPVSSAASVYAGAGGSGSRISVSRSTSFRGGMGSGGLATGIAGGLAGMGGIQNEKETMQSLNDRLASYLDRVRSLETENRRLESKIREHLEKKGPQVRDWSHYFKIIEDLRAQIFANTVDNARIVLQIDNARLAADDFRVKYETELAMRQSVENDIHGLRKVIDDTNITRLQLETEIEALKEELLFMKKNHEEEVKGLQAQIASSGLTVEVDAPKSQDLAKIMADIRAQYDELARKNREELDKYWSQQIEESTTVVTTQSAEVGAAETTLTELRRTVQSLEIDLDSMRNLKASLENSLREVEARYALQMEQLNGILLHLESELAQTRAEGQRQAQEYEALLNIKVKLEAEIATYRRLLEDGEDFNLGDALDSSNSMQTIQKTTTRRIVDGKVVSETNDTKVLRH
Described as above.

Experiment [3] addresses T3, K8(130-483)/intact K18 heterotypic complex.
T3 construct: one member of the group m25; not shown: GST fusion partner (modified pGEX-2T) on the keratin proteins
T3 K8 fragment: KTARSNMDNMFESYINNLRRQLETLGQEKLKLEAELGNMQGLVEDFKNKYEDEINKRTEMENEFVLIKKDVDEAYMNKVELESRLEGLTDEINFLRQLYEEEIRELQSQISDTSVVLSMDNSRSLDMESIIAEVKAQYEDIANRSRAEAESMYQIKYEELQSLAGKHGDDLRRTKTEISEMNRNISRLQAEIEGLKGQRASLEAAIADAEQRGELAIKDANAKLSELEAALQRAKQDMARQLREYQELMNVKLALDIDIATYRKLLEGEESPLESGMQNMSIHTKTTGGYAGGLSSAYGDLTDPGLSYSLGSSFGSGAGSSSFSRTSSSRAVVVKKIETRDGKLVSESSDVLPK
T3 K18 intact: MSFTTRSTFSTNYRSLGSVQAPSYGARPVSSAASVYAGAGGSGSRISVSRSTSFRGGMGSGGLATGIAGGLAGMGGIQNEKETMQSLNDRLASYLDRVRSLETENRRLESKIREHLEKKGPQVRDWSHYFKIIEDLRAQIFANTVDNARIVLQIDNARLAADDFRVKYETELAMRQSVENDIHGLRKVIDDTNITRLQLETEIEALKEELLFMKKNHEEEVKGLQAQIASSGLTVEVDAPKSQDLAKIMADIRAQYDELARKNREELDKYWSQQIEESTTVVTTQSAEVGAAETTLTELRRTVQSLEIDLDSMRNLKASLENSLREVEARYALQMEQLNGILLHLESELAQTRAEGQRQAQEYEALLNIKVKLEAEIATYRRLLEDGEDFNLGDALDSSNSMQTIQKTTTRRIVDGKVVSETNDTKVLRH
The experiment is described as above.

Experiment [4] concerns the target T4, K8(240-483)/intact K18 heterotypic complex.
T4 construct: one member of the group m25; not shown: N-terminal GST carrier (modified pGEX-2T) and its linker on the keratin constructs
T4 chain 1: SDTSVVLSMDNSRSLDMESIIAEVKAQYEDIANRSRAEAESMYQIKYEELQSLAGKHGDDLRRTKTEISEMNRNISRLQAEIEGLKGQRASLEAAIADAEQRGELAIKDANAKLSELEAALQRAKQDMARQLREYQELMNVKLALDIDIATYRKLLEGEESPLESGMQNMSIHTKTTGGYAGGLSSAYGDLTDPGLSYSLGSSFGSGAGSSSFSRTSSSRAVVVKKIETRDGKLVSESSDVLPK
T4 chain 2: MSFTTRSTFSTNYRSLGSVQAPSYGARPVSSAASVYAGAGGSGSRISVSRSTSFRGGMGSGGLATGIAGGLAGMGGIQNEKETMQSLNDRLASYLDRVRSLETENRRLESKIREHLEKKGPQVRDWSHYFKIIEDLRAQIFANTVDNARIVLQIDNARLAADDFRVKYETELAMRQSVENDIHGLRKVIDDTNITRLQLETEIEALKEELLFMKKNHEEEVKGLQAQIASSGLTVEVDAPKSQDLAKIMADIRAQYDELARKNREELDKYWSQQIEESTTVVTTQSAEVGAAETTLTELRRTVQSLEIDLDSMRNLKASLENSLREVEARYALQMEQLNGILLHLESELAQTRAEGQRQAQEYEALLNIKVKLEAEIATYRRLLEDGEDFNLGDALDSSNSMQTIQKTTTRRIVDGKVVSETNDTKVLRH
Described as above.

In experiment [5] the target is T5, intact K18, native (band 3 of cytokeratin purified from colon cancer tissue; K18 in fixed cancer cells) (human, UniProt P05783 2-430, acetylated serine at its N-terminus).
T5 construct: Natural protein, no tag; also called normal K18; cytokeratin 18
T5 sequence: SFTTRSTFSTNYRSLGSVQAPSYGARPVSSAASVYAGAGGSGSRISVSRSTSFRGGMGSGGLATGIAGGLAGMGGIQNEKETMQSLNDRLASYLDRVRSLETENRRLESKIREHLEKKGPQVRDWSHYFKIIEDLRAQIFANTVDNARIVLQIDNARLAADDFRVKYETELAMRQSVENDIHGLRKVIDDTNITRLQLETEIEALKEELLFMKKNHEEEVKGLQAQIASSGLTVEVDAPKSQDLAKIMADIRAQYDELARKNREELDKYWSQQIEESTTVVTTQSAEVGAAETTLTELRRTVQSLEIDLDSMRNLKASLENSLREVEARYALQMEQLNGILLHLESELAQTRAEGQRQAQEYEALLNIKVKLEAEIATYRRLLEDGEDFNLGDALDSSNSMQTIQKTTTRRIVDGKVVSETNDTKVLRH
Description: strips of a PVDF blot of SDS-PAGE-separated cytokeratin purified from colon cancer tissue.

Experiment [6] has as its target T6, intact K8, native (band 1 of cytokeratin purified from colon cancer tissue; K8 in fixed cancer cells) (human, UniProt P05787 2-483, N-terminally blocked).
T6 construct: Natural protein, no tag; also called normal K8; cytokeratin 8
T6 chain: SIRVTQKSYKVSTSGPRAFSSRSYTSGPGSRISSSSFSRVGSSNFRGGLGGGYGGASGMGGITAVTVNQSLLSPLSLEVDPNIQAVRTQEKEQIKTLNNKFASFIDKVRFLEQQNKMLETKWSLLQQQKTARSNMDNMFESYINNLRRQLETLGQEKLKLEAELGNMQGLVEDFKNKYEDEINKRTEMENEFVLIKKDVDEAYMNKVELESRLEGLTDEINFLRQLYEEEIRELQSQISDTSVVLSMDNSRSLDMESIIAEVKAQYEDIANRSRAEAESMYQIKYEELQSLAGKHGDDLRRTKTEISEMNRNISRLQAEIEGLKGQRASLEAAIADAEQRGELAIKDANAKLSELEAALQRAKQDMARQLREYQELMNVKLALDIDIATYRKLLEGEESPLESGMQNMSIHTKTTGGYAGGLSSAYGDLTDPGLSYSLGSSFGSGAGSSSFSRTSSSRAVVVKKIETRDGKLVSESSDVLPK
The experiment is described as above.

B1: human monoclonal IgM antibody COU-1 (antibody, V domains shown)
VH: GAEVKKPGASVKVSCKASDYTFSSYYMHWVRQAPGQGLEWMGIINPSGGSTSYAQKFQGRVTMTRDTSTNTVYMELSSLRSEDTAVYYCARDQVVVAATLSNYGMDVWGQGTTVTVSS
VL: ELTQSPGTLSLSPGERATLSCRASQSVSSSYLAWYQQKPGQAPRLLIYDASNRATGIPARFSGSGSGTDFTLTISSLEPEDFAVYYCQQGTNWGIAFGQGTRLDIKR
notes: Human IgM with kappa light chain, secreted by hybridoma B9165 (ECACC 87040201), purified from culture supernatant; also called HMab COU-1; HuMab COU-1
Take B1: the binding result in experiment [1] is given as “no binding (tested: 5 µg/ml COU-1 (P-0285))”; in experiment [2], “no binding (tested: 5 µg/ml COU-1 (P-0285))”; in experiment [3], “no binding (tested: 5 µg/ml COU-1 (P-0285))”; in experiment [4], “no binding (tested: 5 µg/ml COU-1 (P-0285))”; in experiment [5] it was “no binding (tested: 5 µg/ml COU-1 (P-0279))”; in experiment [6], “no binding (tested: 5 µg/ml COU-1 (P-0279))”.
